Positions count from the first letter of the chain named. Names may count otherwise.

Series [1] deals with the molecule itself. As to the kind of experiment: far-UV circular dichroism.
Series [2] deals with the molecule itself. As to the kind of experiment: scanning electron microscopy of in vitro assembled purified protein.

B1: Full length human lamin A W514R (natural protein, UniProt P02545 1-664, looked up)
chain: METPSQRRATRSGAQASSTPLSPTRITRLQEKEDLQELNDRLAVYIDRVRSLETENAGLRLRITESEEVVSREVSGIKAAYEAELGDARKTLDSVAKERARLQLELSKVREEFKELKARNTKKEGDLIAAQARLKDLEALLNSKEAALSTALSEKRTLEGELHDLRGQVAKLEAALGEAKKQLQDEMLRRVDAENRLQTMKEELDFQKNIYSEELRETKRRHETRLVEIDNGKQREFESRLADALQELRAQHEDQVEQYKKELEKTYSAKLDNARQSAERNSNLVGAAHEELQQSRIRIDSLSAQLSQLQKQLAAKEAKLRDLEDSLARERDTSRRLLAEKEREMAEMRARMQQQLDEYQELLDIKLALDMEIHAYRKLLEGEEERLRLSPSPTSQRSRGRASSHSSQTQGGGSVTKKRKLESTESRSSFSQHARTSGRVAVEEVDEEGKFVRLRNKSNEDQSMGNWQIKRQNGDDPLLTYRFPPKFTLKAGQVVTIWAAGAGATHSPPTDLVRKAQNTWGCGNSLRTALINSTGEEVAMRKLVRSVTVVEDDEDEDGDDLLHHHHGSHCSSSGDPAEYNLRSRTVLCGTCGQPADKASASGSGAQVGGPISSGSSASSVTVTRSYRSVGGSGGGSFGDNLVTRSYLLGNSSPRTQSPQNCSIM
For B1, in series [1], the binding result is on record as “binds”.

B2: Full length human lamin A protein/pre-lamin A (664 amino acids), wild type (natural protein, UniProt P02545 1-664, looked up)
chain: B1 chain with R514W
In the case of B2, the binding result in series [2] is given as “binds”.

These data come from article doi:10.1101/2022.05.30.493956 (bioRxiv, 2022).
